Assay [1] relates to CyPPO17. The assay can be described thus: PPO enzyme activity of MBP-fused CyPPO17 wild type and variants. Conditions: PPO enzyme activity relative to wild type; MBP-fused protein, 50 μM protoporphyrinogen IX, room temperature, 30 min. In kind it is biochemical, Thermosynechococcus sp. NK55a. Here is the method:
(§1) Thus, PPO proteins of wild type and variants were expressed as fused to MBP and were used for experiments.
(§2) The following process for purification of PPO protein was performed in a 4° C. cold room. Amylose resin (NEB) was packed to 1.5×15 cm column (Bio-Rad, Econo Columns 1.5×15 cm, glass chromatography column, max. vol), and the obtained protein extracts were loaded to the column at a flow rate of 0.2 ml/min. The column was washed with 3 column volumes of buffer and the presence of protein in the washing solution was examined. When the protein was no longer detected, the washing procedure was terminated. Then, the MBP-PPO protein was eluted with approximately 2 column volumes of buffer containing 20 mM maltose. The protein concentration of each eluent was determined and the elution was stopped when the protein was no longer detected. Ten microliter of each fraction was investigated for protein quantification and SDS-PAGE analysis. The highly pure fractions of PPO protein variants were used for the enzyme assay.
(§3) Since protoporphyrinogen IX, a substrate of PPO protein, was not commercially available, it was chemically synthesized in the laboratory. Overall process was performed in dark under nitrogen stream. […] of protoporphyrin IX was dissolved in 20 ml of 20% (v/v) EtOH, and stirred under dark condition for 30 minutes. The obtained protoporphyrin IX solution was put into a 15 ml screw tube in an amount of 800 μl, and flushed with nitrogen gas for 5 minutes. To this, 1.5 g of sodium amalgam was added and vigorously shaken for 2 minutes. The lid was opened to exhaust hydrogen gas in the tube. Thereafter, the lid was closed and incubated for 3 minutes. The protoporphyrinogen IX solution was filtered using syringe and cellulose membrane filter. […] To determine the enzyme activity of PPO protein, a reaction mixture was prepared with the following composition (based on 10 ml): 50 mM Tris-Cl (pH 8.0); 50 mM NaCl; 0.04% (v/v) Tween 20; 40 mM glucose (0.072 g); 5 units glucose oxidase (16.6 mg); and 10 units catalase (1 μl).
(§4) Hundred and eighty microliters of a reaction mixture containing the purified PPO protein were placed in 96 well plates and 20 μl of […] were added. […] The reaction proceeded at room temperature for 30 min and the fluorescence of protoporphyrin IX was measured using Microplate reader (Sense, Hidex) (excitation: 405 nm; emission: 633 nm). […] To this, 2.7 N HCl was added, and the absorbance at 408 nm was measured. A standard curve was generated using standard protoporphyrin IX, and PPO activity was measured by calibration of protoporphyrin IX using the standard curve of protoporphyrin IX.
(§5) Activities of variants were presented relatively compared to that of wild type.

The subject of assay [2] is CyPPO16. The assay is described as follows: Herbicide tolerance test of CyPPO16 wild type and variants in PPO-deficient E. coli BT3(ΔPPO). It counts as cell-based, Spirulina subsalsa. Conditions: BT3(ΔPPO) transformants, two or more amino acid mutations, dark; for Herbicide tolerance, tiafenacil: 37° C., 16 to 20 hours, relative to wild type at highest concentration (50, 200 μM); for Herbicide tolerance, flumioxazin: relative to wild type at highest concentration (25, 50 μM); for Herbicide tolerance, sulfentrazone: relative to wild type at highest concentration (2000, 4000 μM). The method, then: The mutated CyPPO gene obtained from the Example 2 was transformed to BT3 (ΔPPO) strain which is deficient of PPO activity and cultured in LB media with PPO-inhibiting herbicide, thereby examining whether growth of transformed BT3 was not inhibited.
BT3 competent cells were transformed with the pET303-CyPPO16 and pET303-CyPPO17 plasmids and those with a mutation(s) constructed in Example 2 respectively, and were cultured in LB agar media containing carbenicillin (Gold Biotechnology, Co., Ltd.).
Single colony of E. coli transformed with each CyPPO gene was cultured in 3 ml of LB broth containing carbenicillin overnight, and then was subcultured until absorbance (0D600) reached 0.5 to 1. Then, it was diluted with LB broth to OD600=0.5. Again, the diluted solution was serially diluted 4 times by a factor of one tenth.
The LB agar media (LB 25 g/l, Bacto agar 15 g/l) containing carbenicillin (100 μg/ml) and 0 to 4,000 μM of various herbicides dissolved in DMSO was prepared. Next, 10 μl of each diluted solution was dropped on the plate and cultured at 37° C. under light (Tables 7 and 9, FIGS. 2 to 6, and 18 to 22) or dark (Tables 8 and 10, FIGS. 7 to 17, and 23 to 33) for 16 to 20 hours. Then, extent of tolerance was evaluated.
The extent of herbicide tolerance of the mutated genes was evaluated by comparing that of mutated genes with that of wild type. The relative tolerance was represented with “+” as a factor of 10 times. Evaluation result was listed in Tables 7 to10 and FIGS. 2 to 33:
In Tables 7 to 10, tolerance level was presented as of tolerance of wild type and of variants equivalent to that of wild type, and was done as ‘+’ per each 10 fold resistance until ‘+++++’ as maximal resistance. (Tolerance level was evaluated by relative growth level of variants to that of wild type in the media containing highest concentration of herbicide; ‘+’=1-9 fold higher tolerance, ‘++’=10-99 fold higher tolerance, ‘+++’=100-999 fold higher tolerance, ‘++++’=1,000-9,999 fold higher tolerance, ‘+++++’=more than 10,000 fold higher tolerance)
The concentrations of herbicides were written above the photographs of tolerance test. A dilution series (0D600=0.5, 0.05, 0.005, 0.0005, 0.00005) was made and spotted on LB agar plates supplemented with herbicides.

The test system of assay [3] is CyPPO16. The assay can be described thus: PPO enzyme activity of MBP-fused CyPPO16 wild type and variants. Conditions: PPO enzyme activity relative to wild type; MBP-fused protein, 50 μM protoporphyrinogen IX, room temperature, 30 min. It counts as biochemical, Spirulina subsalsa. The method, then: as §1, §2, §3, §4, §5

B1: V304M: CyPPO17 variant (protein)
chain: MEVDVAIVGGGLSGLSVAWRLQQSAPQYSGVLLEASDRLGGNITTQGAEGFVWELGPNSFAPTPALLQLIAEVGLHSELIRGDRHLPRYIYWRGELYPLEPTRPLALATSNLLSPWGKVRAALGALGFVPPYLGSGDESVNSFFRRHLGQEVAERLVAPFVSGVYAGDPQQLSAAAAFRRIAQLEKLGGGLIAGALRLRRQQPPKPRPPAEVQMRPGELGSFKEGLAALPRAIAQQLKAPVHLQTPVEAITPEPNGGYLLRSGEQTWQARSVVLATPAYQTAALVAPFQPAIARVLAAIPYPTMACVVLAYPAGLGRSVRPGFGVLIPRGQGIRTLGTIWSSCLFPQRTPAGWQVFTSFIGGATDPDLASLREEAIVQQVQQDLTRLLDLPAAKARLLGMKVWRRAIPQYLVGYPQQWQQVTHALSQTPGLFLCSNYAEGVALGDRVEHGNRTAAAVAAYLSGGQS
modifications: Synthetic (Protoporphyrinogen IX oxidase (CyPPO17) of Thermosynechococcus sp. NK55a)
notes: CyPPO17 variant
Take B1: in assay [1], the “Activity (%)” value stood at 82%.

B2: F323V: CyPPO17 variant (protein)
chain: MEVDVAIVGGGLSGLSVAWRLQQSAPQYSGVLLEASDRLGGNITTQGAEGFVWELGPNSFAPTPALLQLIAEVGLHSELIRGDRHLPRYIYWRGELYPLEPTRPLALATSNLLSPWGKVRAALGALGFVPPYLGSGDESVNSFFRRHLGQEVAERLVAPFVSGVYAGDPQQLSAAAAFRRIAQLEKLGGGLIAGALRLRRQQPPKPRPPAEVQMRPGELGSFKEGLAALPRAIAQQLKAPVHLQTPVEAITPEPNGGYLLRSGEQTWQARSVVLATPAYQTAALVAPFQPAIARVLAAIPYPTVACVVLAYPAGLGRSVRPGVGVLIPRGQGIRTLGTIWSSCLFPQRTPAGWQVFTSFIGGATDPDLASLREEAIVQQVQQDLTRLLDLPAAKARLLGMKVWRRAIPQYLVGYPQQWQQVTHALSQTPGLFLCSNYAEGVALGDRVEHGNRTAAAVAAYLSGGQS
modifications: Synthetic (Protoporphyrinogen IX oxidase (CyPPO17) of Thermosynechococcus sp. NK55a)
notes: CyPPO17 variant
Take B2: the “Activity (%)” value in assay [1] is listed as 16%.

B3: V305M + F360M: CyPPO16 variant (protein)
chain: MLDSLIVGAGISGLSAAHTLQKQQTQFLVTESQGRVGGNITTNRQGDYLWEEGPNSFAPTEDLLRLAVEVGLKEDLVFADRRLPRFVYWNQQLHPVPMSPPAALKTQLLSEAGKWRAALGALGFVGGLVGREEETVRQFFTRHLGTEVTERLVAPFVSGVYAGDVDQLSAQAAFRRVFEFAQLGGGLAAGGILARRQAPPKAPPDPSLPETKTGQLGSFREGLEMLPRAIASQLGDRLKLQWRLTHLEITPQQTYLAHFNTPDGPQQIATRTLILTTPAPITADLLKPLTPALHGVLKEIYYPPMACVVLAYPRAASARPLEGFGHLIPRNQGIRTLGTIWSSCLFPGRTPEGEHLLTNMIGGATDPGIAQLDPEEIAQAVHQDLCKILIRPEFTPKILAVRLWKQAIPQYTLGHLQRLATLEQELSKFPGLHILANYTDGVALGDCVKRGVAVAQKIRSRE
modifications: Synthetic (Protoporphyrinogen IX oxidase (CyPPO16) of Spirulina subsalsa)
notes: CyPPO16 variant
Take B3: in assay [2], the “Herbicide tolerance, tiafenacil” value was “+++ (‘+++’=100-999 fold higher tolerance)”; the “Herbicide tolerance, flumioxazin” value is given as “++++ (‘++++’=1,000-9,999 fold higher tolerance)”; the “Herbicide tolerance, sulfentrazone” value is on record as “+ (‘+’=1-9 fold higher tolerance)”. Besides, the “Activity (%)” value in assay [3] is on record as 35%.

B4: L327T + F360M: CyPPO16 variant (protein)
chain: MLDSLIVGAGISGLSAAHTLQKQQTQFLVTESQGRVGGNITTNRQGDYLWEEGPNSFAPTEDLLRLAVEVGLKEDLVFADRRLPRFVYWNQQLHPVPMSPPAALKTQLLSEAGKWRAALGALGFVGGLVGREEETVRQFFTRHLGTEVTERLVAPFVSGVYAGDVDQLSAQAAFRRVFEFAQLGGGLAAGGILARRQAPPKAPPDPSLPETKTGQLGSFREGLEMLPRAIASQLGDRLKLQWRLTHLEITPQQTYLAHFNTPDGPQQIATRTLILTTPAPITADLLKPLTPALHGVLKEIYYPPVACVVLAYPRAASARPLEGFGHTIPRNQGIRTLGTIWSSCLFPGRTPEGEHLLTNMIGGATDPGIAQLDPEEIAQAVHQDLCKILIRPEFTPKILAVRLWKQAIPQYTLGHLQRLATLEQELSKFPGLHILANYTDGVALGDCVKRGVAVAQKIRSRE
modifications: Synthetic (Protoporphyrinogen IX oxidase (CyPPO16) of Spirulina subsalsa)
notes: CyPPO16 variant
In the case of B4, in assay [2], the “Herbicide tolerance, tiafenacil” value is recorded as “++++ (‘++++’=1,000-9,999 fold higher tolerance)”; the “Herbicide tolerance, flumioxazin” value was “++++ (‘++++’=1,000-9,999 fold higher tolerance)”; the “Herbicide tolerance, sulfentrazone” value was “++ (‘++’=10-99 fold higher tolerance)”. Further, the “Activity (%)” value in assay [3] is 21%.

B5: A162C + L327T + F360M: CyPPO16 variant (protein)
chain: MLDSLIVGAGISGLSAAHTLQKQQTQFLVTESQGRVGGNITTNRQGDYLWEEGPNSFAPTEDLLRLAVEVGLKEDLVFADRRLPRFVYWNQQLHPVPMSPPAALKTQLLSEAGKWRAALGALGFVGGLVGREEETVRQFFTRHLGTEVTERLVAPFVSGVYCGDVDQLSAQAAFRRVFEFAQLGGGLAAGGILARRQAPPKAPPDPSLPETKTGQLGSFREGLEMLPRAIASQLGDRLKLQWRLTHLEITPQQTYLAHFNTPDGPQQIATRTLILTTPAPITADLLKPLTPALHGVLKEIYYPPVACVVLAYPRAASARPLEGFGHTIPRNQGIRTLGTIWSSCLFPGRTPEGEHLLTNMIGGATDPGIAQLDPEEIAQAVHQDLCKILIRPEFTPKILAVRLWKQAIPQYTLGHLQRLATLEQELSKFPGLHILANYTDGVALGDCVKRGVAVAQKIRSRE
modifications: Synthetic (Protoporphyrinogen IX oxidase (CyPPO16) of Spirulina subsalsa)
notes: CyPPO16 variant
As to B5, in assay [2], the “Herbicide tolerance, tiafenacil” value was “+++++ (‘+++++’=more than 10,000 fold higher tolerance)”; the “Herbicide tolerance, flumioxazin” value is given as “+++++ (‘+++++’=more than 10,000 fold higher tolerance)”; the “Herbicide tolerance, sulfentrazone” value was “++++ (‘++++’=1,000-9,999 fold higher tolerance)”. The “Activity (%)” value in assay [3] came to 17%.
